Consider ten molecules from patent publication US20200010836A1, “Regulation of Gene Expression by Aptamer-Mediated Accessibility of Polyadenylation Signals” (MEIRAGTX, UK II Limited, priority 2017, published 2020).

For this series, the system named is luciferase expression. Kind of series: Firefly luciferase assay of HEK 293 cells transfected with riboswitch constructs, treated with guanosine or guanine. As to conditions: for basal level luciferase expression, % of the pFLuc control vector / basal luciferase expression reduced by % versus control construct pFLuc: absence of guanine treatment; for induction fold of luciferase activity (presence / absence of guanosine): 500 μM guanosine vs DMSO solvent control; for basal luciferase expression reduced by % versus control construct pFLuc: given as 'reduced by'; for fold induction by guanine compared with other constructs: 500 μM guanine; for basal level luciferase expression in the absence of guanine (comparison in words): no guanine, compared with control or parent construct; for induction fold of luciferase activity (presence / absence of guanine): 500 μM guanine vs NaOH solvent control. In kind it is cell-based. How it is done: Transfection and aptamer ligand treatment: 3.5×10^4 HEK 293 cells were plated in a 96-well flat bottom plate the day before transfection. Plasmid DNA (500 ng) was added to a tube or a 96-well U-bottom plate. Separately, TransIT-293 reagent (Minis; 1.4 μl) was added to 50 μl opti-mem I media (Life Technologies), and allowed to sit for 5 minutes at room temperature (“RT”). Then, 50 μl of this diluted transfection reagent was added to the DNA, mixed, and incubated at RT for 20 min. Finally, 7 μl of this solution was added to a well of cells in a 96-well plate. Four hours after transfection, the media was aspirated, and new media was added with (i) DMSO (0.5%) or 500 μM guanosine; or (ii) NaOH (2 mM) as solvent control or 500 μM guanine. The induction fold was expressed as the quotient of luciferase activity obtained in the presence of aptamer ligand divided by the value obtained in the absence of the aptamer ligand.
Firefly luciferase assay of cultured cells: Twenty-four hours after media change, plates were removed from the incubator, and equilibrated to RT for several minutes on a lab bench, then aspirated. Glo-lysis buffer (Promega, […]) was added, and the plates allowed to remain at RT for at least 5 minutes. Then, the well contents were mixed by 50 μL trituration, and 20 μL of each sample was mixed with 20 μL of bright-glo reagent (Promega) that had been diluted to 10% in glo-lysis buffer. 96 wells were spaced on an opaque white 384-well plate. Following a 5-min incubation at RT, luminescence was measured using Tecan machine with 500 mSec read time. The luciferase activity was expressed as mean relative light unit (RLU)±S.D.

B1: DSE_Gua_4: SEQ ID NO: 8; xpt-guanine aptamer linked to 14 bp stem-loop embedding DSE (nucleic acid)
DNA: AAGGCCAAGAAGGGCGGAAAGATCGCCGTGTAAGCCATACCACATTTGTAGAGGTTTTACTTGCTTTAAAAAACCTCCCACACCTCCCCCTGAACCTGAAACATAAAATGAATGCAATTGTTGTTGTTAACTTGTTTATTGCAGCTTATAATGGTTACAAATAAAGCAATAGCATCACAAATTTCACAAATAAAGCATTTTTTTCACTGCATTCTAGTTGTGGTTTGTCCGAAAGGACAAACCACAACATAATCGCGTGGATATGGCACGCAAGTTTCTACCGGGCACCGTAAATGTCCGACTGTTGTGGAAACTCATCAATGTATCTTAACGCGT
For B1, the “basal level luciferase expression, % of the pFLuc control vector” value is given as ~80%. Also, the “luciferase activity in the absence of aptamer ligand guanosine (comparison in words)” value (DMSO treated, compared among constructs and with pFLuc-SV40) is “lowest”.

B2: ATA_Gua_1: luciferase construct, SEQ ID NO: 1; xpt-guanine aptamer linked to 9 bp effector stem-loop (GAAA loop) embedding AATAAA of SV40 early polyA (nucleic acid)
DNA: AAGGCCAAGAAGGGCGGAAAGATCGCCGTGTAAGCCATACCACATTTGTAGAGGTTTTACTTGCTTTAAAAAACCTCCCACACCTCCCCCTGAACCTGAAACATAAAATGAATGCAATTGTTGTTGTTAACTTGTTTATTGCAGCTTATAATGGTTACAAATAAAGCAATAGCATCACAAATTTCTAAAGGTATAATCGCGTGGATATGGCACGCAAGTTTCTACCGGGCACCGTAAATGTCCGACTACCTTTATTTCGAAAGAAATAAAGCATTTTTTTCACTGCATTCTAGTTGTGGTTTGTCCAAACTCATCAATGTATCTTAACGCGT
B2: the “induction fold of luciferase activity (presence / absence of guanosine)” value was 6.7 fold and the “basal luciferase expression reduced by % versus control construct pFLuc” value came to 45%.

B3: Stbl_ATA_Gua_1: SEQ ID NO: 14; ATA_Gua_1 with GAAA loop replaced by more stable TTCG loop (nucleic acid)
DNA: AAGGCCAAGAAGGGCGGAAAGATCGCCGTGTAAGCCATACCACATTTGTAGAGGTTTTACTTGCTTTAAAAAACCTCCCACACCTCCCCCTGAACCTGAAACATAAAATGAATGCAATTGTTGTTGTTAACTTGTTTATTGCAGCTTATAATGGTTACAAATAAAGCAATAGCATCACAAATTTCTAAAGGTATAATCGCGTGGATATGGCACGCAAGTTTCTACCGGGCACCGTAAATGTCCGACTACCTTTATTTCTTCGGAAATAAAGCATTTTTTTCACTGCATTCTAGTTGTGGTTTGTCCAAACTCATCAATGTATCTTAACGCGT
Take B3: the “fold induction by guanine compared with other constructs” value is given as “higher induction fold” and the “basal level luciferase expression in the absence of guanine (comparison in words)” value was “lower luciferase activity”.

B4: gaat_ATA_Gua_1: SEQ ID NO: 15; ATA_Gua_1 variant containing GAAT loop (nucleic acid)
DNA: AAGGCCAAGAAGGGCGGAAAGATCGCCGTGTAAGCCATACCACATTTGTAGAGGTTTTACTTGCTTTAAAAAACCTCCCACACCTCCCCCTGAACCTGAAACATAAAATGAATGCAATTGTTGTTGTTAACTTGTTTATTGCAGCTTATAATGGTTACAAATAAAGCAATAGCATCACAAATTTCTAAAGGTATAATCGCGTGGATATGGCACGCAAGTTTCTACCGGGCACCGTAAATGTCCGACTACCTTTATTTCGAATGAAATAAAGCATTTTTTTCACTGCATTCTAGTTGTGGTTTGTCCAAACTCATCAATGTATCTTAACGCGT
As to B4, the “fold induction by guanine compared with other constructs” value is “slightly lower fold induction” and the “basal level luciferase expression in the absence of guanine (comparison in words)” value is “higher basal level luciferase”.

B5: ATA_DSE_Gua: SEQ ID NO: 16; pFLuc construct containing both ATA_Gua_1 and DSE_Gua_1 switches (nucleic acid)
DNA: AAGGCCAAGAAGGGCGGAAAGATCGCCGTGTAAGCCATACCACATTTGTAGAGGTTTTACTTGCTTTAAAAAACCTCCCACACCTCCCCCTGAACCTGAAACATAAAATGAATGCAATTGTTGTTGTTAACTTGTTTATTGCAGCTTATAATGGTTACAAATAAAGCAATAGCATCACAAATTTCTAAAGGTATAATCGCGTGGATATGGCACGCAAGTTTCTACCGGGCACCGTAAATGTCCGACTACCTTTATTTCGAAAGAAATAAAGCATTTTTTTCACTGCATTCTAGTTGTGGTTTGTCCGAAAGGACAAACCATAATCGCGTGGATATGGCACGCAAGTTTCTACCGGGCACCGTAAATGTCCGACTGGTTTGTAAACTCATCAATGTATCTTAACGCGT
Take B5: the “induction fold of luciferase activity (presence / absence of guanine)” value (“induction fold … (presence / absence of guanine)” for short) is “approximately 2.1 fold”; the “basal level luciferase expression, % of the pFLuc control vector” value was 20%; the “basal level luciferase expression in the absence of guanine (comparison in words)” value is on record as “further decreases the basal level”.

B6: SPA_DSE_Gua: SEQ ID NO: 11; xpt-guanine aptamer linked to 3′ end of stem-loop embedding DSE of synthetic polyA (nucleic acid)
DNA: AAGGCCAAGAAGGGCGGAAAGATCGCCGTGTAAGGATCCAAGCTTATCGATACCGTCGACCTCGAGGGCCCAGATCTGCGGCCGCAATAAAAGATCTTTATTTTCATTAGATCTGTGTGTTGGTTTTTTGTGTGTCGAAAGACACACAATATAATCGCGTGGATATGGCACGCAAGTTTCTACCGGGCACCGTAAATGTCCGACTATTGTGTGGAAATAATTCTTACT
Turning to B6, the “induction fold … (presence / absence of guanine)” value was 1.9 fold.

B7: DSE_Gua_1: SEQ ID NO: 5; xpt-guanine aptamer linked to 3′ end of 9 bp stem-loop embedding DSE of SV40 early polyA (nucleic acid)
DNA: AAGGCCAAGAAGGGCGGAAAGATCGCCGTGTAAGCCATACCACATTTGTAGAGGTTTTACTTGCTTTAAAAAACCTCCCACACCTCCCCCTGAACCTGAAACATAAAATGAATGCAATTGTTGTTGTTAACTTGTTTATTGCAGCTTATAATGGTTACAAATAAAGCAATAGCATCACAAATTTCACAAATAAAGCATTTTTTTCACTGCATTCTAGTTGTGGTTTGTCCGAAAGGACAAACCATAATCGCGTGGATATGGCACGCAAGTTTCTACCGGGCACCGTAAATGTCCGACTGGTTTGTAAACTCATCAATGTATCTTAACGCGT
For B7, the “basal luciferase expression reduced by % versus control construct pFLuc” value turned out to be 35%.

B8: mtSPA_ATA_Gua: SEQ ID NO: 13; xpt-guanine aptamer with 9 bp stem embedding AATAAA of mtSPA, 2 GC base pairs added (nucleic acid)
DNA: AAGGCCAAGAAGGGCGGAAAGATCGCCGTGTAAGGATCCAAGCTTATCGATACCGTCGACCTCGAGGGCCCAGATCTGCGGAAAAGGTATAATCGCGTGGATATGGCACGCAAGTTTCTACCGGGCACCGTAAATGTCCGACTACCTTTTATTGCGAAAGCAATAAAATATCTTTATTTTCATTACATCTGTGTGTTGGTTTTTTGTGTGTCTAGAAATAATTCTTACT
For the molecule B8, the “induction fold … (presence / absence of guanine)” value is 1.7 fold and the “basal level luciferase expression in the absence of guanine (comparison in words)” value is recorded as “decreased”.

B9: SPA_ATA_Gua: SEQ ID NO: 10; xpt-guanine aptamer linked to stem-loop embedding AATAAA of synthetic polyA sequence (nucleic acid)
DNA: AAGGCCAAGAAGGGCGGAAAGATCGCCGTGTAAGGATCCAAGCTTATCGATACCGTCGACCTCGAGGGCCCAGATCTGCGGCAAAAGGTATAATCGCGTGGATATGGCACGCAAGTTTCTACCGGGCACCGTAAATGTCCGACTACCTTTTATTGGAAACAATAAAAGATCTTTATTTTCATTAGATCTGTGTGTTGGTTTTTTGTGTGTCTAGAAATAATTCTTACT
For the molecule B9, the “basal level luciferase expression in the absence of guanine (comparison in words)” value is “did not result in reduced luciferase activity”.

B10: DSE_Gua_2: SEQ ID NO: 6; xpt-guanine aptamer linked to 10 bp stem-loop embedding DSE (nucleic acid)
DNA: AAGGCCAAGAAGGGCGGAAAGATCGCCGTGTAAGCCATACCACATTTGTAGAGGTTTTACTTGCTTTAAAAAACCTCCCACACCTCCCCCTGAACCTGAAACATAAAATGAATGCAATTGTTGTTGTTAACTTGTTTATTGCAGCTTATAATGGTTACAAATAAAGCAATAGCATCACAAATTTCACAAATAAAGCATTTTTTTCACTGCATTCTAGTTGTGGTTTGTCCGAAAGGACAAACCAATAATCGCGTGGATATGGCACGCAAGTTTCTACCGGGCACCGTAAATGTCCGACTTGGTTTGAAACTCATCAATGTATCTTAACGCGT
As for B10, the “induction fold of luciferase activity (presence / absence of guanosine)” value came to 3.7 fold.
